# The supplement of paper PMC5998384
# Columns and labels:
# HeLa Kyoto [1] = experiment: melting temperature (median over replicates), in situ; higher = more thermally stable
# HeLa Kyoto [2] = experiment: solubility change mitosis vs G1/S (difference of NP-40 vs SDS log2 ratios) (log2 ratio difference); higher = more soluble in mitosis
# HeLa Kyoto [3] = experiment: solubility in G1/S (NP-40 vs SDS abundance) (log2 ratio); higher = more soluble; conditions: cell cycle stage: G1/S
# HeLa Kyoto [4] = experiment: thermal stability score vs G1/S (z-score of summed log2 fold changes over temperatures); higher = more thermally stable than in G1/S
# [5] = cell cycle stage: early G1 (4.5 h after nocodazole release)
# 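Wherever melting temperature (median over replicates), in situ is given: HeLa Kyoto cells synchronized by double thymidine or nocodazole block, proteins quantified by TMT10plex mass spectrometry, three independent biological replicates.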
# 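Wherever solubility change mitosis vs G1/S (difference of NP-40 vs SDS log2 ratios) is given: synchronized HeLa Kyoto cells (double thymidine block for G1/S, nocodazole release for mitosis), protein amounts in NP-40 versus SDS lysates quantified by mass spectrometry, three biological replicates.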
# 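Wherever solubility in G1/S (NP-40 vs SDS abundance) is given: HeLa Kyoto cells arrested at G1/S by double thymidine block, proteins quantified by TMT10plex mass spectrometry in mild NP-40 versus SDS extracts, three biological replicates.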
# 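Wherever thermal stability score vs G1/S (z-score of summed log2 fold changes over temperatures) is given: synchronized HeLa Kyoto cells, proteins quantified by TMT10plex mass spectrometry, three biological replicates, mitosis taken 0.5 h after nocodazole release, G1/S directly after double thymidine block.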
# Sequence of HNRNPU (chain, as listed by the source): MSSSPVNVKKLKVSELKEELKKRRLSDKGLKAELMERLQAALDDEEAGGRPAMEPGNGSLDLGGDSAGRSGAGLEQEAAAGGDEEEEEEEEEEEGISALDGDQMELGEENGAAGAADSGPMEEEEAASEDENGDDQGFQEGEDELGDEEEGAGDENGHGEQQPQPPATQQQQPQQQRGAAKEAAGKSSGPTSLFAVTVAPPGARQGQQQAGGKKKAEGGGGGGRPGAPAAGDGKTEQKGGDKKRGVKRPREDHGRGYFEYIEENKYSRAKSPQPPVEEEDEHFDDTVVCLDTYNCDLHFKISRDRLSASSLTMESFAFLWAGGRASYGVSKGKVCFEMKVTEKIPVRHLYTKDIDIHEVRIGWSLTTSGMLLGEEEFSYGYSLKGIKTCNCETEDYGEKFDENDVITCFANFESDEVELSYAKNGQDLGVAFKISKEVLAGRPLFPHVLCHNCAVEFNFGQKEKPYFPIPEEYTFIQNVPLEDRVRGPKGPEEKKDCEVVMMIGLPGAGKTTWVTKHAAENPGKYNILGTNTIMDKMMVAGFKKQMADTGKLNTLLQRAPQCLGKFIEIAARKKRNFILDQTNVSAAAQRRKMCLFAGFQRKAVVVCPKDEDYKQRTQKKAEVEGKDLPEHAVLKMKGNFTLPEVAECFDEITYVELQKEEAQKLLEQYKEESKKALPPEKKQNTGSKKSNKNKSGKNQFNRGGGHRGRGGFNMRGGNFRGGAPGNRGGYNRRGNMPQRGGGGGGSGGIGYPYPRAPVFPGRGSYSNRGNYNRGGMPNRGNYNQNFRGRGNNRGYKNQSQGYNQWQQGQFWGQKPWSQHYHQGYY
Substance,melting temperature (HeLa Kyoto [1]; cell cycle stage: G1/S),melting temperature (HeLa Kyoto [1]; cell cycle stage: mitosis),solubility change mitosis (log2) (HeLa Kyoto [2]),solubility in G1/S (log2) (HeLa Kyoto [3]),thermal stability score (HeLa Kyoto [4]; [5]),thermal stability score (HeLa Kyoto [4]; cell cycle stage: mitosis)
MGKIALQLKATLENITNLRPVGEDFRWYLKMKCGNCGEISDKWQYIRLMDSVALKGGRGSASMVQKCKLCARENSIEILSSTIKPYNAEDNENFKTIVEFECRGLEPVDFQPQAGFAAEGVESGTAFSDINLQEKDWTDYDEKAQESVGIYEVTHQFVKC [C1ORF123],52.2 °C,52.1 °C,-0.125,-0.207,-0.132,0.084
MTTDEGAKNNEESPTATVAEQGEDITSKKDRGVLKIVKRVGNGEETPMIGDKVYVHYKGKLSNGKKFDSSHDRNEPFVFSLGKGQVIKAWDIGVATMKKGEICHLLCKPEYAYGSAGSLPKIPSNATLFFEIELLDFKGEDLFEDGGIIRRTKRKGEGYSNPNEGATVEIHLEGRCGGRMFDCRDVAFTVGEGEDHDIPIGIDKALEKMQREEQCILYLGPRYGFGEAGKPKFGIEPNAELIYEVTLKSFEKAKESWEMDTKEKLEQAAIVKEKGTVYFKGGKYMQAVIQYGKIVSWLEMEYGLSEKESKASESFLLAAFLNLAMCYLKLREYTKAVECCDKALGLDSANEKGLYRRGEAQLLMNEFESAKGDFEKVLEVNPQNKAARLQISMCQKKAKEHNERDRRIYANMFKKFAEQDAKEEANKAMGKKTSEGVTNEKGTDSQAMEEEKPEGHV [FKBP5],46.7 °C,48.6 °C,-0.124,0.0823,2.48,4.23
MLTTLKPFGSVSVESKMNNKAGSFFWNLRQFSTLVSTSRTMRLCCLGLCKPKIVHSNWNILNNFHNRMQSTDIIRYLFQDAFIFKSDVGFQTKGISTLTALRIERLLYAKRLFFDSKQSLVPVDKSDDELKKVNLNHEVSNEDVLTKETKPNRISSRKLSEECNSLSDVLDAFSKAPTFPSSNYFTAMWTIAKRLSDDQKRFEKRLMFSHPAFNQLCEHMMREAKIMQYKYLLFSLHAIVKLGIPQNTILVQTLLRVTQERINECDEICLSVLSTVLEAMEPCKNVHVLRTGFRILVDQQVWKIEDVFTLQVVMKCIGKDAPIALKRKLEMKALRELDRFSVLNSQHMFEVLAAMNHRSLILLDECSKVVLDNIHGCPLRIMINILQSCKDLQYHNLDLFKGLADYVAATFDIWKFRKVLFILILFENLGFRPVGLMDLFMKRIVEDPESLNMKNILSILHTYSSLNHVYKCQNKEQFVEVMASALTGYLHTISSENLLDAVYSFCLMNYFPLAPFNQLLQKDIISELLTSDDMKNAYKLHTLDTCLKLDDTVYLRDIALSLPQLPRELPSSHTNAKVAEVLSSLLGGEGHFSKDVHLPHNYHIDFEIRMDTNRNQVLPLSDVDTTSATDIQRVAVLCVSRSAYCLGSSHPRGFLAMKMRHLNAMGFHVILVNNWEMDKLEMEDAVTFLKTKIYSVEALPVAAVNVQSTQ [FASTKD2],51.8 °C,51.1 °C,-0.134,-0.17,0.322,0.825
MAQYKGAASEAGRAMHLMKKREKQREQMEQMKQRIAEENIMKSNIDKKFSAHYDAVEAELKSSTVGLVTLNDMKAKQEALVKEREKQLAKKEQSKELQMKLEKLREKERKKEAKRKISSLSFTLEEEEEGGEEEEEAAMYEEEMEREEITTKKRKLGKNPDVDTSFLPDRDREEEENRLREELRQEWEAKQEKIKSEEIEITFSYWDGSGHRRTVKMRKGNTMQQFLQKALEILRKDFSELRSAGVEQLMYIKEDLIIPHHHSFYDFIVTKARGKSGPLFNFDVHDDVRLLSDATVEKDESHAGKVVLRSWYEKNKHIFPASRWEPYDPEKKWDKYTIR [FAM50A],48.4 °C,50.3 °C,-0.0697,0.0519,1.03,2.04
HNRNPU,47.1 °C,49.5 °C,0.232,-0.381,7.74,17.8
MLRAKNQLFLLSPHYLRQVKESSGSRLIQQRLLHQQQPLHPEWAALAKKQLKGKNPEDLIWHTPEGISIKPLYSKRDTMDLPEELPGVKPFTRGPYPTMYTFRPWTIRQYAGFSTVEESNKFYKDNIKAGQQGLSVAFDLATHRGYDSDNPRVRGDVGMAGVAIDTVEDTKILFDGIPLEKMSVSMTMNGAVIPVLANFIVTGEEQGVPKEKLTGTIQNDILKEFMVRNTYIFPPEPSMKIIADIFEYTAKHMPKFNSISISGYHMQEAGADAILELAYTLADGLEYSRTGLQAGLTIDEFAPRLSFFWGIGMNFYMEIAKMRAGRRLWAHLIEKMFQPKNSKSLLLRAHCQTSGWSLTEQDPYNNIVRTAIEAMAAVFGGTQSLHTNSFDEALGLPTVKSARIARNTQIIIQEESGIPKVADPWGGSYMMECLTNDVYDAALKLINEIEEMGGMAKAVAEGIPKLRIEECAARRQARIDSGSEVIVGVNKYQLEKEDAVEVLAIDNTSVRNRQIEKLKKIKSSRDQALAERCLAALTECAASGDGNILALAVDASRARCTVGEITDALKKVFGEHKANDRMVSGAYRQEFGESKEITSAIKRVHKFMEREGRRPRLLVAKMGQDGHDRGAKVIATGFADLGFDVDIGPLFQTPREVAQQAVDADVHAVGISTLAAGHKTLVPELIKELNSLGRPDILVMCGGVIPPQDYEFLFEVGVSNVFGPGTRIPKAAVQVLDDIEKCLEKKQQSV [MUT],50.6 °C,50.3 °C,-0.0993,0.0667,-0.0875,0.531
